Tested on: K4 kissing-loop RNA reporter
Test: apparent KD of K4 kissing-loop reporter; higher = weaker reporter binding
Details: Eterna round: R107
Experimental: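 RNA-MaP round R107: designed RNA switches with theophylline, tryptophan, arginine or FMN aptamers are transcribed on-chip within common flanks. They are titrated with a labelled K4 kissing-loop RNA reporter in RNA-MaP buffer (100 mM Tris pH 7.5, 80 mM KCl, 4 mM MgCl2), without ligand or with the indicated ligand. Median apparent KD per design.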

[1] = input ligand: theophylline 20 uM
[2] = input ligand: tryptophan 2.4 mM
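Also: bound reporter read as fluorescence of individual clusters on recovered sequencing chips by microscopy, with normalized cluster intensities fitted with a binding model.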

Sequence | apparent KD of K4 kissing-loop reporter (input ligand: FMN 200 uM) [µM] | apparent KD of K4 kissing-loop reporter (input ligand: arginine 13.2 mM) [µM] | apparent KD of K4 kissing-loop reporter (input ligand: none) [µM] | apparent KD of K4 kissing-loop reporter [1] [µM] | apparent KD of K4 kissing-loop reporter [2] [µM]
UUUGAAAUGUCUGAUACCAGAGAAAAUAUAUGUAGUGAUGUUAUAUACAAAUUUAAUAAGCUCCCUUGGCAGCAGUAUGAAUUUU [AstrosExc-TheB#14] | 0.593 | 0.717 | 0.796 | 0.748 | 0.582
GGAUCUUCCAGUGAUGUUGGUUAAUAUAUCAAGGAUAUGACGAAAGUCAGAAGGUGAAAGACUGGACAAAGUCCAGUCGGAUCCA [KL-SSFMN-A19] | 0.444 | 0.573 | 0.599 | 0.444 | 0.43
AAAGAGUCCUGAGCCGAAGAAGAAGGCGGACGAGGACCGGUACGGCCGCCACUCGAAAGGAGUGCGGCUGAGUGAUGUUUGGCCG [Tryptophan A (C-G optomized)] | 0.342 | 0.181 | 0.284 | 0.281 | 0.268
GGCAGUGAUGUUGCCAGUGGCAGAUGUGAAGGAGCGCGGUGAGACGCAGGUAGGUCGCACAUUGAAAUUGCUGUCACUAAAAUGC [#02 K4 Arginine A Exclusion] | 0.293 | 0.3 | 0.273 | 0.314 | 0.215
GUAGCACUUGACAGUGAUGUUGUCAAGGGCAAGGAUAUCACCUCAGUGAGAAGGUGUCCUUGAUAACUGCUACGGGAAUAUCCCA [Omei KL FMN A Exc D v7] | 0.603 | 0.136 | 0.152 | 0.156 | 0.168
CGUUCAUCCUAGGCGUGAGUGAUGUUUACCCGAGGACCGGUACGGCCGCCACUCGUAUGGCGAGAGUUUAGCCAUUUCCAAUAUA [theeternabot_exclusion_KL_Trp_A_17] | 0.465 | 0.403 | 0.503 | 0.505 | 0.398
UGUCAUUGGUCGGCCGCCACUUCAUGUAGAGUGAUGUUUUGUAGGACGGAUCGAAAGAUCUGUCGAAGGACCGGGACCGAUGACU [FiskerMod 15 - Jieux - Same State - Tryptophan B] | 0.233 | 0.0847 | 0.197 | 0.235 | 1.04
CGCCGGAAGGCGAGCGCUCCCACUCCGGAAGGAGCGCCCGGAAGGGCAGGUAGGUCGCCGGAGUGAUGUUCCGGUGGAGGGCUCG [#2 Exclusion - Arginine A Attempt #11 (Inspired by Omei)] | 0.171 | 0.058 | 0.164 | 0.0993 | 0.0999
GUCUCGAGUGAUGUUCGGGUCGAUUGGGAAGGAGCGCCCGGAAGGGCAGGUAGGUCGCCCGGGCCGCGCGGGAAACCGCGCGUCC [#2 Same State - Arginine A Attempt #8 (HarryS)] | 0.208 | 0.11 | 0.194 | 0.14 | 0.154
UCCUACGAGGUAACGUGGAUAUCUCGUUGCAAGGAUAUCUGGAAACAGAGAAGGUGCAACAUUAUCGGCAGUGAUGUUGCUGACC | 0.711 | 0.242 | 0.482 | 0.385 | 0.28
UGAUACCAGACGGCCGCCACUACACCAGUCAAAGACUGGAUGUGAUGUCUGACCAGUGAUGUUGGUAGGACCGGGUCUGGUAUCU [TrypBX 6 #Palindromic #SwitchBubble #StaticStem] | 0.246 | 0.303 | 0.428 | 0.45 | 0.305
UCAUGAAAGACGGCCGCCACUGAUGCUGGAGUGAUGUUUCGGACAUAGUAGAGUGAUGUUCUGCGCAGGACCGGGUCGUCAUGAA [KL-SSTryp-B10 #double Kiss] | 0.132 | 0.0646 | 0.134 | 0.13 | 0.062
AGGGACUCUUCGGAGUCCCGGUCAAGGGAUACCAGUGAUGUUGGUCACCCUUGGCAGCCCAGAAACCAAGCCACCAAAGGUGGCA [Omei KL Theo A Exc A v3] | 0.117 | 0.0979 | 0.0973 | 0.103 | 0.107
UUUAUAUUGUCGGCCGCCACUGGAUCAAUAUUUGUAUGAUCUAGUUCAAAGUGAUGUUUUGAGUCCAGGACCGGGACAUUUGUUA [JR_ExcTryptoB_Sub005] | 0.708 | 0.558 | 0.669 | 0.558 | 0.917
UUUGGAAGCGGUGUUGAUUAGGGAGCGGAAGGAGCGCCGAGGAGGGCAGGUAGGUCGCCGGAAUGUAGUGAUGUUGCAUAGAGGU [ExArgA.Aa] | 0.29 | 0.265 | 0.214 | 0.526 | 0.178
ACGCAUGGGCAAGGAUAUGGUAGUGAUGUUACCUUUGCGGUGCCGGGAACGAAUGACGGUCAUGCGCCAGAAGGUGCUCAGACAA [theeternabot_exclusion_KL_FMN_B_23] | 0.203 | 0.18 | 0.178 | 0.25 | 0.183
GUCCCGAGUGAUGUUCGGGUCGUUCGGGAAGGAGCGCCCGCAAGGGCAGGUAGGUCGCCCGGAUCUCUCAGGUAACUGAGAGACC [#2 Same State - Arginine A Attempt #28 (HarryS)] | 0.553 | 0.319 | 0.431 | 0.408 | 0.416
AUUUAAUGUAUAGAUUAUAUACAUUAUUCAGAGGAUAUGCUUUGAAGCAGAAGGCUGGAUGUAGUGAUGUUGCAAUUUUAAUUUA [JR_SSFMNA_Sub006] | 0.214 | 0.265 | 0.236 | 0.25 | 0.163
AAUUCAGUGAUGUUGGAAGGCAGGCGGGAUACCAGCGGAGAAUAACGCCCUUGGCAGCCCAUAUAUCCCAAAUAGAUAAUAGUUC [Same State - Theophylline A (Freestyle 3)] | 0.386 | 0.317 | 0.41 | 0.405 | 0.376
UGAUACCAGACGGCCGCCACUCCCGCAGGUCAAAGACCUGCGAAGAAGGUUUUUUAGUGAUGUUGGAGGACCGGGUCUGGUAUCU [FiskerMod 20 - Jieux - Exclusion - Tryptophan B] | 0.311 | 0.0926 | 0.257 | 0.14 | 0.689
AUGUAUGAAUUAGGAUAUCGUGAGCCAUGCAUAUAUAUGAUAAAUGGAUAUGUCGUAGUGAUGUUACGAGAAGGAGUGUGGAGUA [KL-XFMN-B2] | 0.0692 | 0.0736 | 0.0747 | 0.09 | 0.0506

Sequence | apparent KD of K4 kissing-loop reporter (input ligand: FMN 200 uM) [µM] | apparent KD of K4 kissing-loop reporter (input ligand: arginine 13.2 mM) [µM] | apparent KD of K4 kissing-loop reporter (input ligand: none) [µM] | apparent KD of K4 kissing-loop reporter [1] [µM] | apparent KD of K4 kissing-loop reporter [2] [µM]
UCGAAGGAUGGAAGGAGCGCUCGUCAGUCCUGCGAGUGAUGUUCGUGGGUAAAUAGUCGCGAGCAGGUAGGUCGCCAUCUUGAGC [Laxe] | 0.139 | 0.102 | 0.114 | 0.126 | 0.109
UCCUGCUGUCUGCCACGAAAGUGGAUUGAUACCAGAGUCGAAAGACUCCCUUGGCAGCGAGUGAUGUUCGAAGCAGGUAAAUAAA [MatMod 2 - Jieux - Exclusion - Theophylline A] | 0.21 | 0.215 | 0.234 | 0.22 | 0.188
UUGAGCCUGACGGAAGUCAGGCUCUGCGAGCGAGGACCGGUACGGCCGCCACUCGGUGCAGUGAUGUUGCAUGGCCGCAAGGCCG [#2 Exclusion - Tryptophan A Attempt #16 (HarryS)] | 0.311 | 0.29 | 0.352 | 0.311 | 0.42
UGAUAGGACAGAAGGAGCGGAGCUGGUCAAAGACCAGCAAUACGUUGAAAAGGAGUGAUGUUCCAGGUAGGUCGCUGUCCUAUCU [ArgBX 27 #SwitchBubble #StaticStem] | 0.0935 | 0.103 | 0.106 | 0.133 | 0.0852
ACGGUUUCCACGGCCGCCACUUGCGCAUUAGAUCUUACCCUAGGAGUGAUGUUCCAUACAAGUACAAGGACCGGGUGGGACAUAA [theeternabot_sameState_KL_Trp_B_28] | 0.257 | 0.369 | 0.375 | 0.342 | 0.239
GCCUAGCAGGGAAGGAGCGCCAUAAGAAGUAAAGGAGGGAGUUGAGUGAUGUUCAAAAUGUGGCAGGUAGGUCGCCCUGCUAGGC [KL-SSArg B13] | 0.705 | 0.388 | 0.635 | 0.49 | 0.507
AAAUAGAUCAGUCAACCAGUGAUGUUGGAAGGAGCGUGCGAAAGCACAGGUAGGUCGCCAUAAUAAAAUUGGCUGAUCAAAAUAA | 0.34 | 0.615 | 0.648 | 0.614 | 0.344
AGAUGUUUAGCUCAAAGAACGAAAAUGGAAGGAGCGUGCGAAAGCACAGGUAGGUCGCCAGUGAUGUUGGAACCUGAGCAUCAAA [#SwitchBubble 16 #K4Late] | 0.316 | 0.274 | 0.262 | 0.244 | 0.23
CUUAGGAGUGGUGUUGAUUAGGGAGCGGAAGGAGCGCCAAUGAUGGCAGGUAGGUCGCCGGAAUAUAGUGAUGUUAUAUAGAGGG [ExArgA.Q] | 0.273 | 0.252 | 0.592 | 0.29 | 0.222
CUGACUCAAUAGUCAGUGAUGUUGACUGGACGAGGACCGGUACGGCCGCCACUCGAGAGUGGUGUAAAAUAUGUCACAGAGUCAG [Tryp A SS t3b] | 0.186 | 0.194 | 0.208 | 0.182 | 0.2
GCCGUAGAUUGAAGGAGCGGUUCAUCAAUUCAAGUCGAGUGAUGUUCGACGAUUCUCAGUAACCAGGUAGGUCGCAAUCUACGGC | 0.175 | 0.142 | 0.15 | 0.171 | 0.143
UGGCGACUGCCAGUGAUGUUGGCCGUCGUACGAGGACCGGUACGGCCGCCACUCGUCCUGGUUUAGGCUCCGCCUUCACAUCAGG [Beterire] | 0.401 | 0.326 | 0.393 | 0.784 | 0.309
ACUGAGCAUGCGGCCGCCACUUCAGAACGUCGCCCAAAGGGCGACGCCUCCAGAGUGAUGUUCUGGAGGACCGGGCAUGUUCAGA [Omei KL Tryp B Exc A v1] | 0.54 | 0.3 | 0.506 | 0.45 | 0.112
AGUACAAUGGCGGCCGCCACUCAACGCAGAUCAAAGAUCUGCGUUCACUCAGUGAUGUUGAGUGAGAGGACCGGGCCUUUGUACA [Omei KL Tryp B SS B v5] | 0.221 | 0.18 | 0.19 | 0.171 | 0.141
CCAUCGCUGUUCGAUACCAGUCAUUUUUUAUUUUAUUUUUUUUUUGGAGUGAUGUUCCAAGACCCUUGGCAGCGGAUAGUGAUGG [whbob_SS_Theo_B_th80] | 0.116 | 0.143 | 0.114 | 0.145 | 0.111
UGACUGGAUGGAAGGAGCGCUAAACUCCUAGUGAUGUUAGGGAUACGAGGCAAAGCCUCGAAGCAGGUAGGUCGCCAUCUAGUCU [FiskerMod 21 - Jieux - Same State - Arginine B] | 0.171 | 0.123 | 0.146 | 0.171 | 0.159
AGACGAGAUGAAGGAUAUGCGGACAAAGUGAUGUUUUGUCCGAAAGUAGGCAGUAAUAUCGAAAAUGCAGAAGGUCAAGAACAUA [theeternabot_exclusion_KL_FMN_B_36] | 0.135 | 0.173 | 0.143 | 0.256 | 0.145
GCUAUGGUAGGAAGGAGCGCUUACUCGGUCAUAAGAGUGAUGUUCGAGACCGAGUAUUUAUAGCAGGUAGGUCGCCUACUAUAGC [Arginine B K4 6] | 0.068 | 0.124 | 0.00237 | 0.199 | 0.352
AGCCGAAAGGCGAGUGCUGUCACUCCGGAAGGAGCGCUCAAAAGAGCAGGUAGGUCGCCGGAGUGAUGUUCCGGUGCAGCACUCA [Omei KL Arginine A Exc B v4] | 0.594 | 0.408 | 0.58 | 0.751 | 0.623
GGGUAUUACGGAGGAUAUGCACUGAGGAGGAGAAUAUAGUGAUGUUAUAUAAGAGGAAGGAGAAGAGUAGAAGGCCGUGGUAUUG [SSFMNB.H] | 0.247 | 0.217 | 0.281 | 0.277 | 0.19
AAAUAGAUCAGUCACCCAGUGAUGUUGGAAGGAGCGUGCGAAAGCACAGGUAGGUCGCCAAAAUAAAAGUGGCUGAUCAAAAUAA [#SwitchBubble 5 #K4Early] | 0.336 | 0.3 | 0.389 | 0.526 | 0.226

Source: the supplement of paper PMC9170038
